Assay results as given in paper PMC11538689 (2024).

Legend:
Muromonab = assay: SPR
[1] = target: nanobody‐based trispecific T cell engager (Nb‐TriTE) (human, UniProt P01857 = IgG part); assay: SPR

B1: rhCD3 (protein)
chain: DGNEEMGGITQTPYKVSISGTTVILTCPQYPGSEILWQHNDKNIGGDEDDKNIGSDEDHLSLKEFSELEQSGYYVCYPRGSKPEDANFYLYLRARVCENCMEMD
Muromonab
  Kd: 7.68 nM
[1]
  Kd: 0.337 nM
